For one assay, the target named is T1, PANC-1 cell surface MUC1 (Homo sapiens, PANC-1 cells, UniProt P15941, O-glycans ST, T and/or Tn at the Thr of the Asp-Thr-Arg region, as the paper concludes).
T1 construct: MUC1, type 1 single-pass transmembrane mucin, endogenous in the human pancreatic cancer cell line PANC-1 (ATCC CRL-1469); also called endogenous MUC1 TRD; membrane-tethered MUC1; source: endogenous, on PANC-1 cells
Nature of the assay: flow cytometry on cells; PANC-1 cells with Alexa 488 conjugated SN-131, 2 h on ice in PBS/EDTA, without or with 10 μM MUC1-5ST (8). To be noted: one partner purified. A general note: A flow cytometer gives signals particle by particle.

For assay [1], the target named is T2, MUC1 TRD on exosomes released from PANC-1 cells (Homo sapiens, PANC-1 exosomes, UniProt P15941).
T2 construct: also called exosomal MUC1 TRD-STs; cargo MUC1 TRD; source: endogenous, exosomes isolated by ultracentrifugation from PANC-1 culture supernatant
T2 sequence (P15941 24-1255): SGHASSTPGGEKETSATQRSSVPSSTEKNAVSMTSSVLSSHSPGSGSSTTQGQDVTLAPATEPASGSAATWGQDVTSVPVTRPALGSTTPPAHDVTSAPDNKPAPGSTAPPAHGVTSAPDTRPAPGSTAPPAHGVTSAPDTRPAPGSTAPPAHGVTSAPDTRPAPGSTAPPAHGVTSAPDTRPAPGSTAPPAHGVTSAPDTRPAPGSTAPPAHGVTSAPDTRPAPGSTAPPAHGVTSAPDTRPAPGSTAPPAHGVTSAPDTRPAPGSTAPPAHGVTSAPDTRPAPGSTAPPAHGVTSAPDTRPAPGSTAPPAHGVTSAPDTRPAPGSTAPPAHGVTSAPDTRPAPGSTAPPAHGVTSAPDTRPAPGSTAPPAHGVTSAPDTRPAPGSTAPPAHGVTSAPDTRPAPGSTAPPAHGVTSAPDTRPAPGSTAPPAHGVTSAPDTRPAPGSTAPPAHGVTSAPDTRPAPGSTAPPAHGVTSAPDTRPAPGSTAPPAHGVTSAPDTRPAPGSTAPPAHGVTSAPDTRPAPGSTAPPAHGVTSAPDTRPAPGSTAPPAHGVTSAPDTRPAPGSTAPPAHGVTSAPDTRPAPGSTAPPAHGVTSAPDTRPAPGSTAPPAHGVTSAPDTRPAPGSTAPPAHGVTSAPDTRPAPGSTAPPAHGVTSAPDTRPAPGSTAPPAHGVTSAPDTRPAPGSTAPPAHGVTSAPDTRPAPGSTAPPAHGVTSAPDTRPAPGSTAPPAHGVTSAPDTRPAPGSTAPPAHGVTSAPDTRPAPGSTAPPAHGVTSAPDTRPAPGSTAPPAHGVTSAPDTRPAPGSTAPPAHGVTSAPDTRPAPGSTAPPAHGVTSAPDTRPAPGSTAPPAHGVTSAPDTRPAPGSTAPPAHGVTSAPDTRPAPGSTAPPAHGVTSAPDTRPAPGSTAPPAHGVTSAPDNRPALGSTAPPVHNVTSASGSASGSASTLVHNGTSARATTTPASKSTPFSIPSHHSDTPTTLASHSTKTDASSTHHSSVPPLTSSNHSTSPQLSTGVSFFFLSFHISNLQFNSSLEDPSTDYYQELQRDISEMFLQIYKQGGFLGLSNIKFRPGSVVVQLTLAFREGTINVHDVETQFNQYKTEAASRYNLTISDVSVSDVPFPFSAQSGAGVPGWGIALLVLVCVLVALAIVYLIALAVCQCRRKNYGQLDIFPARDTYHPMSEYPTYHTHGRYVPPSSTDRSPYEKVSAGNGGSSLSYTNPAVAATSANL
Nature of the assay: ELISA; sandwich: exosomes from PANC-1 cells captured by coated anti-CD9 or anti-CD63 mAb, detected with AP-labelled SN-131 (1 μg/mL), room temperature. The conditions noted are these: one partner purified. A general note: An ELISA detects its analyte on a solid surface through an enzyme-linked reagent.

T1 sequence (P15941 24-1255): as above

B1: Alexa488-conjugated SN-131 (antibody, V domains shown)
VH: QVQLQQSGAELARPGASVKLSCKASGYTFTNYGLSWVKQRTGQGLEWIGENHPGSGIIYHNEKFRGKATLTADKSSSTAYVQLSSLTSEDSAVYFCARSSGTRGFAYWGQGTLVTVSA
VL: DVLMTQTPLSLPVSLGDQASISCRSSQSIVHSNGNTYLEWYLQKPGQSPKLLIYKVSNRFSGVPDRFSGSGSGTDFTLKISRVEAEDLGVYYCFQGSHGPWTFGGGTKLEIK
notes: as the heavy chain of m1; Fab chains in PDB 8HRH; as the light chain of m1; IgG2a
Regarding B1, in the assay with PANC-1 cell surface MUC1, the binding result is “binds”.

B2: AP (alkaline phosphatase) labelled SN-131 mAb (antibody, V domains shown)
VH: QVQLQQSGAELARPGASVKLSCKASGYTFTNYGLSWVKQRTGQGLEWIGENHPGSGIIYHNEKFRGKATLTADKSSSTAYVQLSSLTSEDSAVYFCARSSGTRGFAYWGQGTLVTVSA
VL: DVLMTQTPLSLPVSLGDQASISCRSSQSIVHSNGNTYLEWYLQKPGQSPKLLIYKVSNRFSGVPDRFSGSGSGTDFTLKISRVEAEDLGVYYCFQGSHGPWTFGGGTKLEIK
notes: as for B1
On to B2, for which the binding result in assay [1] is listed as “binds”.

(Values after publication PMC10398351, “Structural and molecular insight into antibody recognition of dynamic neoepitopes in membrane tethered MUC1 of pancreatic cancer cells and secreted exosomes†” (RSC Chemical Biology, 2023).)
